Measurements reported in publication PMC5587775 (Nucleic Acids Research, 2017).

Molecular target: T1, recombinant MyoD protein (UniProt P10085 1-318)
T1 sequence (looked up): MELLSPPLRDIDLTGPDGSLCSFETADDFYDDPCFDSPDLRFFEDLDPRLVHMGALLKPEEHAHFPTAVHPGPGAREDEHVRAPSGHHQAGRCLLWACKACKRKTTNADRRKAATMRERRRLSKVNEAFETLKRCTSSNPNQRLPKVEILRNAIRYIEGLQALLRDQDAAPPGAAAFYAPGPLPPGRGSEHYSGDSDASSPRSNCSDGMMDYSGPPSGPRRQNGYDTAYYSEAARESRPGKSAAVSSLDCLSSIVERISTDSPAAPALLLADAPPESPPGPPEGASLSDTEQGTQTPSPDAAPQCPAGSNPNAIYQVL
Assay: pull-down

B1: FoxO3 (natural protein, mouse (endogenous in C2C12), UniProt Q9WVH4 1-672, looked up)
chain: MAEAPASPVPLSPLEVELDPEFEPQSRPRSCTWPLQRPELQASPAKPSGETAADSMIPEEDDDEDDEDGGGRASSAMVIGGGVSSTLGSGLLLEDSAMLLAPGGQDLGSGPASAAGALSGGTPTQLQPQQPLPQPQPGAAGGSGQPRKCSSRRNAWGNLSYADLITRAIESSPDKRLTLSQIYEWMVRCVPYFKDKGDSNSSAGWKNSIRHNLSLHSRFMRVQNEGTGKSSWWIINPDGGKSGKAPRRRAVSMDNSNKYTKSRGRAAKKKAALQAAPESADDSPSQLSKWPGSPTSRSSDELDAWTDFRSRTNSNASTVSGRLSPILASTELDDVQDDDGPLSPMLYSSSASLSPSVSKPCTVELPRLTDMAGTMNLNDGLAENLMDDLLDNIALPPSQPSPPGGLMQRGSSFPYTAKSSGLGSPTGSFNSTVFGPSSLNSLRQSPMQTIQENRPATFSSVSHYGNQTLQDLLASDSLSHSDVMMTQSDPLMSQASTAVSAQNARRNVMLRNDPMMSFAAQPTQGSLVNQNLLHHQHQTQGALGGSRALSNSVSNMGLSDSSSLGSAKHQQQSPASQSMQTLSDSLSGSSLYSASANLPVMGHDKFPSDLDLDMFNGSLECDMESIIRSELMDADGLDFNFDSLISTQNVVGLNVGNFTGAKQASSQSWVPG
Question: With B1 as the binder, how does the “fold retrieval with E-box motif DNA against without” value read?
Answer: The value was 1.6 fold.
